The data set concerns the molecule itself. Nature of the data set: bead aggregation assay.

B1: NcadEC-Fc (secreted ectodomain of zebrafish N-cadherin fused to the Fc region of human IgG) (Fc fusion, UniProt Q90275 147-711, looked up)
chain: DWVIPPVNVLENSRKQFPEELVKIQSDKDKSNTLRYSVTGPGADQNPTGLFIIDPISGLLSVTKPLDREHIPNFHLRAHAVDINGNQMENPIDIIINVIDMNDNRPEFTHQIWNGTVDEGAKPGTFVMTVTSQDKDDPNTANGMLRYKILSQTPESPSSNMFTINNKTGKIITVAAGLDREKVPQYTLIIQATDMEGNPTYGLSNTATAVIRLLDVNDNAPEFTRETFHGEVPENRVNVIVTNLTVTDKDEPGTPAWNAVYRIISGDPTGRFSIPTDPVTNEGLVTVVKPVDFEMNRSFMLTVVADNEVPLASGIHRTRQSTATVSIRVIDVNESPNFDPNPKQIKLEEGLPQWSMLTTFTAHDPDRYMQQTISYSKLYDPANWLEIDPNNGRISTIAVLDRESPYVKNNLYNATFMASDNGVPRASGTGTLQIYLLDINDNAPRVFPQEAEVCERPEPNAINITAVDGDLNPNAGPYAFELPNRPSDIRRNWTLTRISGDHAQLSLKISYLESGIYELPISITDSGNLPMSNTTYLRIKVCQCDHHGDCVDMERIMAAGLGTGA
As to B1, the binding result is given as “binds”.

These data come from paper PMC3246890 (The Journal of Cell Biology, 2011).
